The values that follow come from US8466107B2, “Fibrin-binding peptides and conjugates thereof” (Bracco Imaging SpA, priority 2006, dated 2013).

Experiment [1] concerns the target DDE (fibrin-derived polypeptide) (Homo sapiens, UniProt P02671+P02675+P02679). Put plainly: Direct binding fluorescence polarization (FP) assay using 5-carboxyfluorescein labeled peptides. To be noted: 20 nM CF5-labeled peptide, serial dilutions of DDE, anisotropy read at 485 nm; read-out: KD (μM) Direct Binding (n = 2).
Experiment [2] addresses T1, fibrin (Homo sapiens, UniProt P02671+P02675+P02679).
T1 sequence (P02671 36-629 limits assumed): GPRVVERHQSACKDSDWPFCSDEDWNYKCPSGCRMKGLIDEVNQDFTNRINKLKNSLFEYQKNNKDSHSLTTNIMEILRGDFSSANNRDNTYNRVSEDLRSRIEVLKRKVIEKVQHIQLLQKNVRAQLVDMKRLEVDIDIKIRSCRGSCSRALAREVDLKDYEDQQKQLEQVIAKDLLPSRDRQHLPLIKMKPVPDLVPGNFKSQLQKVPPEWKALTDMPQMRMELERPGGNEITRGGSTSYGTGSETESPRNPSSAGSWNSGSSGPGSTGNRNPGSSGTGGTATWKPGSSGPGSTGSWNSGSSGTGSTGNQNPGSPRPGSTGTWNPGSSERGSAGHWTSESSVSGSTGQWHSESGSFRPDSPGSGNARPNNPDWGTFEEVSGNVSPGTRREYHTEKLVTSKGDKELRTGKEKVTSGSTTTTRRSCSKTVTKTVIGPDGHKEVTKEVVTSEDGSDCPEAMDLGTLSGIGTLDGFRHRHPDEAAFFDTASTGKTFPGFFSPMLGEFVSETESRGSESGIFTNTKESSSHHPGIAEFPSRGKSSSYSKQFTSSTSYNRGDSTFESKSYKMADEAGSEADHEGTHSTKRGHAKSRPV
T1 sequence (P02675 45-491 limits assumed): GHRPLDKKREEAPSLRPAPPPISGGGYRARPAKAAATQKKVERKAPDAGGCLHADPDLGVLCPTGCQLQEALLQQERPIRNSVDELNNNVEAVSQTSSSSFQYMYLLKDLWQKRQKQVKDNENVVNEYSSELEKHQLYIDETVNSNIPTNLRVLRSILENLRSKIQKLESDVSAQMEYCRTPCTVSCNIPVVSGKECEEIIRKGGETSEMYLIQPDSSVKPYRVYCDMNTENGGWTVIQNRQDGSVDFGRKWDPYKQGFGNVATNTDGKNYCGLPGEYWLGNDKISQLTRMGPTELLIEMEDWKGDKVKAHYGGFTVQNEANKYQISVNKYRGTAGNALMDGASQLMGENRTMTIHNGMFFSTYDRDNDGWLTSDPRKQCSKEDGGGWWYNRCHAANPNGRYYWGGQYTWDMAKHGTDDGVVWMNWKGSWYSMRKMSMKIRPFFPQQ
T1 sequence (P02679 27-437 isoform P02679-2 limits assumed): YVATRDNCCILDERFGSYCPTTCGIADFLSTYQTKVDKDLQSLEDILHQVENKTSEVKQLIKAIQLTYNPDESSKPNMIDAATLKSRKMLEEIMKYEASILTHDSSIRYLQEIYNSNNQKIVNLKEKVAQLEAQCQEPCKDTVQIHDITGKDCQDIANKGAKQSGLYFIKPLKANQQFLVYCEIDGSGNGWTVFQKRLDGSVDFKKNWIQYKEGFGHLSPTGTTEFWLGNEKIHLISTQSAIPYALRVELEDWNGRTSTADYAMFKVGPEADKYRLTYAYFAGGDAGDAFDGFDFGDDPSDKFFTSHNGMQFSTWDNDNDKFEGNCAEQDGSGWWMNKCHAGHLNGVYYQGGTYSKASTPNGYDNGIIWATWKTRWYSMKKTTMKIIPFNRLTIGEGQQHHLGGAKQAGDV
Put plainly: Dynamic binding test of targeted microvesicles on fibrin-coated coverslips in a parallel-plate flow chamber. The note with it: shear rate about 114 s^-1, 10 min, 50% human plasma. The procedure: Glass coverslips (40 mm in diameter, Bioptechs Inc., Butler, Pa., USA) were coated with fibrin according the following methodology.
Five mL of a solution of BSA 1% w/v in PBS pH 7.4 were added into a 60 mm Petri Dish containing one coverslip, and incubated at 37° C. for 15 min. Then the coverslip was washed three times with 5 ml of Tween 80/PBS (0.1%, v:v). Twenty five μL of human thrombin solution at 5 U/mL were added per mL of human fibrinogen solution (0.5 mg/mL in 50 mM sodium phosphate, NaCl 280 mM, pH 7.4) and delicately mixed. Five mL of this solution were immediately distributed in each Petri dish. The coverslips were incubated for one hour at 37° C. and then dried overnight at 45° C.
Binding studies of targeted microvesicles were carried out using a parallel-plate flow chamber (FCS2, Bioptech Inc., Butler, Pa., USA) with a chamber gasket of 0.25 mm in thickness, with a customized adapter for upside-down chamber inversion. The coated coverslip was inserted as a plate of the flow chamber. Gas-filled Microvesicles (5×10^6 bubbles/mL in 50% human plasma in PBS) were drawn through the flow chamber using an adjustable infusion pump (Auto Syringe® AS50 Infusion Pump, Baxter, Deerfield, Ill., USA) with a 60 mL syringe (Terumo). The pump flow rate was adjusted to 1 mL/min to obtain the desired shear rate of about 114 s^−1. After 10 minutes, the flow was stopped and pictures were taken randomly on different positions on the coverslip (on surfaces of about 0.025 mm^2) using a 40× objective and a CCD monochrome camera (F-View II, Soft Imaging Systems, Germany) connected to an inverted Olympus IX 50 microscope. The number of microvesicles on each picture was determined, averaged with respect to the total number of pictures and the obtained value was then divided by ten (to obtain the “slope”, i.e. the average amount of bound microvesicles per minute).
For each preparation of Examples 17-20, the binding assay was repeated four times thus obtaining an average value of the slope. The slope represents the microvesicle binding rate on the target substrate. […] A higher slope indicates a better capacity of microvesicles to bind to the target under flow conditions.

[3] abbreviates: microvesicles with DSPC/DSPG envelope, Examples 19C-19E (0.45 μmoles lipopeptide, 0.45 μmoles DSPE-PEG1000).
[4] abbreviates: microvesicles with DSPC/stearate envelope containing the lipopeptide (Examples 20A-20D).
Setting [5] is: microvesicles with DPPE/DPPG envelope containing the lipopeptide (Examples 18A-18C), slope = average bound microvesicles per minute.
Where [6] appears, read: microvesicles with DSPC/DPPG envelope containing the lipopeptide (Examples 17A-17B, molar ratio 47.5/47.5/5), slope = average bound microvesicles per minute.
Setting [7] is: microvesicles with DSPC/DSPA envelope, 0.26 μmoles lipopeptide (Examples 20E, 20G, 20H).

Numbered stars: 1 amine (or outer) side, 2 acyl side, 3 side chain; on linkers, the order of the positions; unused ones are H or OH. Bridge positions count the residues as written; N and C are the ends. Square brackets hold non-standard residues; d marks the D form. Side chains are listed from the residue outwards. Ends that are not written are not given here. Peptide text beside a SMILES is read from it. * marks the point of attachment. DSPE = distearoyl phosphatidylethanolamine, CCCCCCCCCCCCCCCCCC(=O)OC[C@H](COP(=O)(O)OCCN*)OC(=O)CCCCCCCCCCCCCCCCC; DPPE = CCCCCCCCCCCCCCCC(=O)OC[C@H](COP(=O)(O)OCCN*)OC(=O)CCCCCCCCCCCCCCC; 5FAM = O=C1OC2(c3ccc(O)cc3Oc3cc(O)ccc32)c2ccc(C(=O)*)cc21; Glutaryl = O=C(CCCC(=O)[*:2])[*:1]; Cha = N[C@@H](CC1CCCCC1)C(=O)O; PG4 = not defined here; AEEA = NCCOCCOCC(=O)O

Regarding `CC(=O)NCC(=O)N[C@@H](Cc1c[nH]c2ccccc12)C(=O)N[C@@H](CCC(N)=O)C(=O)N1CCC[C@H]1C(=O)N[C@H]1CSSC[C@@H](C(=O)N[C@@H](Cc2c[nH]c3ccccc23)C(=O)N[C@@H](CC(=O)O)C(=O)N2CCC[C@H]2C(=O)NCC(=O)NCC(=O)NCC(=O)N[C@@H](CCCCNC(=O)c2ccc3c(c2)C(=O)OC32c3ccc(O)cc3Oc3cc(O)ccc32)C(N)=O)NC(=O)[C@H](CC2CCCCC2)NC(=O)[C@H]([C@@H](C)O)NC(=O)[C@H](Cc2c[nH]c3ccccc23)NC(=O)[C@H](CO)NC(=O)[C@H](CCC(=O)O)NC(=O)[C@H](C)NC(=O)[C@@H]2CCCN2C1=O` [Seq055-CF5, Ac-GWQPC*PAESWT-Cha-C*WDPGGGK(CF5)-NH2] (Ac-GWQPCPAESWT[Cha]CWDPGGGK(5FAM)-NH2; disulfide 5-13), in experiment [1], the Kd (usually the free concentration of one partner at which half of the binding sites on the other are occupied at equilibrium, for simple one-to-one binding) amounted to 0.08 µM.

In the case of `C[C@@H]1NC(=O)[C@@H]2CCCN2C(=O)[C@@H](NC(=O)[C@@H]2CCCN2C(=O)[C@H](CCC(N)=O)NC(=O)[C@H](Cc2c[nH]c3ccccc23)NC(=O)[C@@H](N)CCCNC(=N)N)CSSC[C@@H](C(=O)N[C@@H](Cc2c[nH]c3ccccc23)C(=O)N[C@@H](CC(=O)O)C(=O)N2CCC[C@H]2C(=O)NCC(=O)NCC(=O)NCC(=O)N[C@@H](CCCCNC(=O)c2ccc3c(c2)C(=O)OC32c3ccc(O)cc3Oc3cc(O)ccc32)C(N)=O)NC(=O)[C@H](Cc2ccccc2)NC(=O)[C@H]([C@@H](C)O)NC(=O)[C@H](Cc2c[nH]c3ccccc23)NC(=O)[C@H](CO)NC(=O)[C@H](CCC(=O)O)NC1=O` [Seq056-CF5] (H-RWQPCPAESWTFCWDPGGGK(5FAM)-NH2; disulfide 5-13), in experiment [1], the Kd stood at 0.06 µM.

Turning to `C[C@@H]1NC(=O)[C@@H]2CCCN2C(=O)[C@@H](NC(=O)[C@@H]2CCCN2C(=O)[C@H](CCC(N)=O)NC(=O)[C@H](Cc2c[nH]c3ccccc23)NC(=O)[C@@H](N)CCCNC(=N)N)CSSC[C@@H](C(=O)N[C@@H](Cc2c[nH]c3ccccc23)C(=O)N[C@@H](CC(=O)O)C(=O)N2CCC[C@H]2C(=O)NCC(=O)NCC(=O)NCC(=O)N[C@@H](CCCCNC(=O)c2ccc3c(c2)C(=O)OC32c3ccc(O)cc3Oc3cc(O)ccc32)C(N)=O)NC(=O)[C@H](CC2CCCCC2)NC(=O)[C@H]([C@@H](C)O)NC(=O)[C@H](Cc2c[nH]c3ccccc23)NC(=O)[C@H](CO)NC(=O)[C@H](CCC(=O)O)NC1=O` [Seq057-CF5, RWQPC*PAESWT-Cha-C*WDPGGGK(CF5)-NH2] (H-RWQPCPAESWT[Cha]CWDPGGGK(5FAM)-NH2; disulfide 5-13), the Kd in experiment [1] worked out at 0.03 µM.

For the compound “Ac-GWQPC*PWESWTFC*WDPGGGK(DSPE-PG4-Glut)-NH2 (Ac-GWQPCPWESWTFCWDPGGGK([Glutaryl-PG4-DSPE])-NH2; disulfide 5-13; reading uncertain; also: printed as Ac-GWQPC*PWESWTFC*WDPGGGK(DSPE-PG4-Glut)-NH2) [Seq016-PL1]”, the Slope in experiment [2] (setting [3]) is given as 11.5; in experiment [2] (setting [4]) it was 8.4.

Consider “Ac-SGSGJWQPC*PWESWTFC*WDPGGGK(DSPE-PG4-Glut)-NH2 (Ac-SGSG[AEEA]WQPCPWESWTFCWDPGGGK-NH2; disulfide 9-17; not fully specified (residue 24); printed as Ac-SGSGJWQPC*PWESWTFC*WDPGGGK(DSPE-PG4-Glut)-NH2) [Seq017-PL1]”, for which the Slope in experiment [2] (setting [5]) is 8.9; in experiment [2] (setting [4]), 3.1.

Regarding “Ac-SGSGSGSGWQPC*PWESWTFC*WDPGGGK(DSPE-PG4-Glut)-NH2 (Ac-SGSGSGSGWQPCPWESWTFCWDPGGGK([Glutaryl-PG4-DSPE])-NH2; disulfide 12-20; reading uncertain; also: printed as Ac-SGSGSGSGWQPC*PWESWTFC*WDPGGGK(DSPE-PG4-Glut)-NH2) [Seq024-PL1]”, the Slope in experiment [2] (setting [3]) came to 6.2.

For “Ac-WQPC*PAESWTFC*WDPGGGK(DSPE-PG4-Glut)-NH2 (Ac-WQPCPAESWTFCWDPGGGK([Glutaryl-PG4-DSPE])-NH2; disulfide 4-12; reading uncertain; also: printed as Ac-WQPC*PAESWTFC*WDPGGGK(DSPE-PG4-Glut)-NH2) [Seq005-PL1]”, the Slope is reported as 7.2 in experiment [2] (setting [5]), 8.54 in experiment [2] (setting [6]) and 6.1 in experiment [2] (setting [4]).

“Ac-WQPC*PWESWTFC*WDPGGGK(DPPE-PG4-Glut)-NH2 (Ac-WQPCPWESWTFCWDPGGGK([Glutaryl-PG4-DPPE])-NH2; disulfide 4-12; reading uncertain) [Seq000-PL1, reference compound]”: the Slope in experiment [2] (setting [5]) amounted to 4.8; in experiment [2] (setting [6]), 6.44; in experiment [2] (microvesicles with DSPC/DSPG envelope, Example 19A (0.63 μmole lipopeptide, 0.28 μmole DSPE-PEG1000)), 4.4; in experiment [2] (microvesicles with DSPC/DSPG envelope, Example 19B (0.36 μmole lipopeptide, 1.44 μmoles DSPE-PEG1000)) it was 4.9; in experiment [2] (setting [4]), 1.6.

“Ac-WQPCPAESWTFCWDPGAGSGK(DPPE-Pro9-Glut-Ttda-Dga)-NH2 (Ac-WQPCPAESWTFCWDPGAGSGK-NH2; disulfide 4-12 (inferred); not fully specified (residue 21)) [Seq005-PL5]” gave a Slope in experiment [2] (setting [7]) of 6.0.

As to “Ac-WQPCPAESWTFCWDPGSAGSK(DPPE-Pro9-Glut-Ttda-Dga)-NH2 (Ac-WQPCPAESWTFCWDPGSAGSK-NH2; disulfide 4-12 (inferred); not fully specified (residue 21)) [Seq005-PL4]”, the Slope in experiment [2] (setting [7]) is 6.4; in experiment [2] (microvesicles with DSPC/DSPA envelope, 0.795 μmoles lipopeptide (Example 20F)), 8.0.

Regarding “RWQPC*PWESWTFC*WDPGGGK(DSPE-PG4-Glut)-NH2 (RWQPCPWESWTFCWDPGGGK([Glutaryl-PG4-DSPE])-NH2; disulfide 5-13; reading uncertain; also: printed as RWQPC*PWESWTFC*WDPGGGK(DSPE-PG4-Glut)-NH2) [Seq023-PL1]”, the Slope in experiment [2] (setting [3]) worked out at 8.5.
